Assay results as given in paper PMC9401620.

T1: RBM46 (mouse, UniProt P86049 1-533)
T1 sequence: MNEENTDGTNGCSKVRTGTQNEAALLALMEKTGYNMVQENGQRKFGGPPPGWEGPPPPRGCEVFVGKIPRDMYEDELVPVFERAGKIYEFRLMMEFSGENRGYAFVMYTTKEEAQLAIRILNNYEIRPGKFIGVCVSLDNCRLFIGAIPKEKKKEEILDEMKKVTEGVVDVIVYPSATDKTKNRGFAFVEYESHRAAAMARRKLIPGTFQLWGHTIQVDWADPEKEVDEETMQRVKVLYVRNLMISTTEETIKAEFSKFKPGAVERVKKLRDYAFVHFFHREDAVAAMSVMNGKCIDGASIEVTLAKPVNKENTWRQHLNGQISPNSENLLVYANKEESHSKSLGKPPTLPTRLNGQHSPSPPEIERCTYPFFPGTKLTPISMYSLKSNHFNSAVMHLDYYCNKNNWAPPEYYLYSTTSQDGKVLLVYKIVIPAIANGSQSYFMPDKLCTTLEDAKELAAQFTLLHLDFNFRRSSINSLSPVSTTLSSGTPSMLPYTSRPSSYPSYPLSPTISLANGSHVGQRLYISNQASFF


Target: T1, RBM46
Assay: EMSA

Binder	binding result
UUGUGAAACUAAAACCCGAC (ssRNA) [Ccna2 3'UTR RNA probe]	binds
UGUUUGAAACAGGAGUCGCU (ssRNA) [RNA probe without RBM46-binding motif]	no binding
